Results reported in patent US20240011046A1 (UNIVERSITY OF PITTSBURGH OF THE COMMONWEALTH SYSTEM OF …, published 2024).
Substitutions are numbered along the chain they refer to.

B1: mmTGF-β2-7M (designed binder)
chain: ALDAAYCFRNVQDNCCLRPLYIDFRKDLGWKWIHEPKGYNANFCAGACPYRASKSPSCVSQDLEPLTIVYYVGRKPKVEQLSNMIVKSCKCS
notes: also called dnTGFβ2^mm; mini-monomer
B2: mmTGF-β2-7M2R (designed binder)
chain: B1 chain with S57R, V59R
notes: Made to reduce aggregation
B3: mmTGF-β2-2M-Del8-17 (designed binder)
chain: B1 chain with C7V, C16A, K26R, V69L, V72I, K75T, V78I
notes: The 8-17 disulfide is eliminated; also called mmTGF-β2-2M-De18-17; mmTGF-β2-2M-De18_17
B4: mmTGF-β2-7M-PRDC (designed binder)
chain: KEVLASSQEALVVTERKYLKSDWCKLRPLYIDFRKDLGWKWIHEPKGYNANFCYGQCNSFYIPRHVKKEEDSFQSSAFCVSQDLEPLTIVYYVGRKPKVEQLSNMIVKSCRCMSV

How the values were obtained:
[1] = biological target: T1, TGF-β type II receptor (TβRII) (UniProt P37173 38-159); assay: ITC: TβRII injected into the monomer, three replicate titrations globally fit to a 1:1 binding model (reference control)
T1 construct: Soluble protein: injected in ITC, and 2 µg run on the native gel; also called TGF-β receptor II; transforming growth factor-β type 2 receptor
T1 sequence (P37173 38-159 limits assumed): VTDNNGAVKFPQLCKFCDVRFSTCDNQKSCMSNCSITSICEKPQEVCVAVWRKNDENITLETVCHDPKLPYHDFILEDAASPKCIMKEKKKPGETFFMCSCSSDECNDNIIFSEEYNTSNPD
Description: (§1) In order to evaluate the ability of the mmTGF-β2-7M variants described herein (mmTGF-β2-7M2R (SEQ ID NO: 9), mmTGF-β2-2M-De18-17 (SEQ ID NO: 10), and mmTGF-β2-7M-PRDC (SEQ ID NO: 11)) to bind TβRII, isothermal titration calorimetry (ITC) and native gels were used. The ITC binding experiments were performed by injecting increasing amounts of TβRII into mmTGF-β2-7M2R (SEQ ID NO: 9) or mmTGF-β2-2M-De18-17 (SEQ ID NO: 10), with mmTGF-β2-7M (SEQ ID NO: 7) used a reference control. These titrations yielded readily detectable isotherms with a large negative enthalpy and a near 1:1 binding stoichiometry (FIG. 8).

[2] = biological target: TGF-β receptor II (TβRII) on the HEK-293 TGF-β CAGA-Luc reporter cells (UniProt P37173 23-567, limits assumed); assay: cell-based or functional assay
TGF-β receptor II (TβRII) on the HEK-293 TGF-β CAGA-Luc reporter cells, sequence (P37173 23-567 limits assumed): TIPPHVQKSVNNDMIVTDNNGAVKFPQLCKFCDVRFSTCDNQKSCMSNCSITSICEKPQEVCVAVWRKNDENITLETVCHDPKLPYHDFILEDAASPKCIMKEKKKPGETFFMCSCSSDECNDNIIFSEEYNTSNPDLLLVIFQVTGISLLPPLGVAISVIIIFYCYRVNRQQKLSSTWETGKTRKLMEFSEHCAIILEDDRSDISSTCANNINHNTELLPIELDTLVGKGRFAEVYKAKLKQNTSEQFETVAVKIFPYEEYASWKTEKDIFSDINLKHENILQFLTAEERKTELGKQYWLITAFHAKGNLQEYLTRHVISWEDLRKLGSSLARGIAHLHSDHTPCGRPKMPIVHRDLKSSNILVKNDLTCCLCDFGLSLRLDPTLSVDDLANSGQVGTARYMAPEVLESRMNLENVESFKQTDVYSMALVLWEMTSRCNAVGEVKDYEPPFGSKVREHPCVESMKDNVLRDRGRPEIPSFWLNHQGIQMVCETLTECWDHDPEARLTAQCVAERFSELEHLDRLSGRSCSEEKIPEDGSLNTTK

[3] = biological target: T1, TGF-β type II receptor (TβRII); assay: ITC: TβRII injected into the monomer, three replicate titrations globally fit to a 1:1 binding model
Description: as §1

Binder | Kd [1] [µM] | HEK-293 CAGA-Luc TGF-β reporter assay, inhibition of signaling stimulated by 10 pM TGF-β3, IC50 [2] [nM] | Kd [3] [µM] | HEK-293 CAGA-Luc TGF-β reporter assay, IC50 relative to mmTGF-β2-7M [2] [fold]
B1 | 0.0605 | 58.2 |  | 
B2 |  | 53.3 | 0.0751 | 
B3 |  | 111 | 0.0801 | 
B4 |  | 282 |  | ~5
